Results: patent US20190194317A1 (FARON PHARMACEUTICALS, published 2019)

B1: Composite Human anti-CLEVER-1 antibody VH2/VK2 (antibody, human IgG4, V domains shown)
VH: QVTLKESGPTLVKPTQTLTLTCSFSGFSLSTSGMGIGWIRQPSGKALEWLAHIWWDDDKRYNPALKSRLTISKDTSKNQVVLTMTNMDPVDTATYYCARHYGYDPYYAMDYWGQGTLVTVSS
VL: QIVLTQSPGTLSLSPGERATMSCTASSSVSSSYLHWYQQKPGKAPKLCIYRTSNLASGVPSRFSGSGSGTDYTLTISSLQPEDFATYYCHQYHRSPPTFGQGTKLEIK
B2: Composite Human anti-CLEVER-1 antibody VH1/VK1 (antibody, human IgG4, V domains shown)
VH: QVTLKESGPTIVKPTQTLTLTCSFSGFSLNTSGMGIGWIRQPSGKALEWLAHIWWDDDKRYNPALKSRLTISKDTSKNQVVLTMTNMDPVDTATYYCARHYGYDPYYAMDYWGQGTSVTVSS
VL: QIVLTQSPGILSLSPGERATMSCTASSSVSSSYLHWYQQKPGKAPKLCIYRTSNLASGVPSRFSGSGSGTDYTLTISSLQAEDFATYYCHQYHRSPPTFGQGTKLEIK
B3: Composite Human anti-CLEVER-1 antibody VH1/VK2 (antibody, human IgG4, V domains shown)
VH: QVTLKESGPTIVKPTQTLTLTCSFSGFSLNTSGMGIGWIRQPSGKALEWLAHIWWDDDKRYNPALKSRLTISKDTSKNQVVLTMTNMDPVDTATYYCARHYGYDPYYAMDYWGQGTSVTVSS
VL: QIVLTQSPGTLSLSPGERATMSCTASSSVSSSYLHWYQQKPGKAPKLCIYRTSNLASGVPSRFSGSGSGTDYTLTISSLQPEDFATYYCHQYHRSPPTFGQGTKLEIK
B4: Composite Human anti-CLEVER-1 antibody VH1/VK3 (antibody, human IgG4, V domains shown)
VH: QVTLKESGPTIVKPTQTLTLTCSFSGFSLNTSGMGIGWIRQPSGKALEWLAHIWWDDDKRYNPALKSRLTISKDTSKNQVVLTMTNMDPVDTATYYCARHYGYDPYYAMDYWGQGTSVTVSS
VL: EIVLTQSPGTLSLSPGERATMSCTASSSVSSSYLHWYQQKPGKAPKLCIYRTSNLASGVPSRFSGSGSGTDYTLTISSLQPEDFATYYCHQYHRSPPTFGQGTKLEIK
B5: Composite Human anti-CLEVER-1 antibody VH1/VK4 (antibody, human IgG4, V domains shown)
VH: QVTLKESGPTIVKPTQTLTLTCSFSGFSLNTSGMGIGWIRQPSGKALEWLAHIWWDDDKRYNPALKSRLTISKDTSKNQVVLTMTNMDPVDTATYYCARHYGYDPYYAMDYWGQGTSVTVSS
VL: QIVLTQSPGILSLSPGERATMSCTASSSVSSSYLHWYQQKPGKAPKLLIYRTSNLASGVPSRFSGSGSGTDYTLTISSLQAEDFATYYCHQYHRSPPTFGQGTKLEIK
B6: Composite Human anti-CLEVER-1 antibody VH1/VK5 (antibody, human IgG4, V domains shown)
VH: QVTLKESGPTIVKPTQTLTLTCSFSGFSLNTSGMGIGWIRQPSGKALEWLAHIWWDDDKRYNPALKSRLTISKDTSKNQVVLTMTNMDPVDTATYYCARHYGYDPYYAMDYWGQGTSVTVSS
VL: EIVLTQSPGTLSLSPGERATLSCTASSSVSSSYLHWYQQKPGKAPKLLIYRTSNLASGVPSRFSGSGSGTDYTLTISSLQPEDFATYYCHQYHRSPPTFGQGTKLEIK
B7: Composite Human anti-CLEVER-1 antibody VH2/VK1 (antibody, human IgG4, V domains shown)
VH: QVTLKESGPTLVKPTQTLTLTCSFSGFSLSTSGMGIGWIRQPSGKALEWLAHIWWDDDKRYNPALKSRLTISKDTSKNQVVLTMTNMDPVDTATYYCARHYGYDPYYAMDYWGQGTLVTVSS
VL: QIVLTQSPGILSLSPGERATMSCTASSSVSSSYLHWYQQKPGKAPKLCIYRTSNLASGVPSRFSGSGSGTDYTLTISSLQAEDFATYYCHQYHRSPPTFGQGTKLEIK
B8: Composite Human anti-CLEVER-1 antibody VH2/VK3 (antibody, human IgG4, V domains shown)
VH: QVTLKESGPTLVKPTQTLTLTCSFSGFSLSTSGMGIGWIRQPSGKALEWLAHIWWDDDKRYNPALKSRLTISKDTSKNQVVLTMTNMDPVDTATYYCARHYGYDPYYAMDYWGQGTLVTVSS
VL: EIVLTQSPGTLSLSPGERATMSCTASSSVSSSYLHWYQQKPGKAPKLCIYRTSNLASGVPSRFSGSGSGTDYTLTISSLQPEDFATYYCHQYHRSPPTFGQGTKLEIK
B9: Composite Human anti-CLEVER-1 antibody VH2/VK4 (antibody, human IgG4, V domains shown)
VH: QVTLKESGPTLVKPTQTLTLTCSFSGFSLSTSGMGIGWIRQPSGKALEWLAHIWWDDDKRYNPALKSRLTISKDTSKNQVVLTMTNMDPVDTATYYCARHYGYDPYYAMDYWGQGTLVTVSS
VL: QIVLTQSPGILSLSPGERATMSCTASSSVSSSYLHWYQQKPGKAPKLLIYRTSNLASGVPSRFSGSGSGTDYTLTISSLQAEDFATYYCHQYHRSPPTFGQGTKLEIK
B10: Composite Human anti-CLEVER-1 antibody VH2/VK5 (antibody, human IgG4, V domains shown)
VH: QVTLKESGPTLVKPTQTLTLTCSFSGFSLSTSGMGIGWIRQPSGKALEWLAHIWWDDDKRYNPALKSRLTISKDTSKNQVVLTMTNMDPVDTATYYCARHYGYDPYYAMDYWGQGTLVTVSS
VL: EIVLTQSPGTLSLSPGERATLSCTASSSVSSSYLHWYQQKPGKAPKLLIYRTSNLASGVPSRFSGSGSGTDYTLTISSLQPEDFATYYCHQYHRSPPTFGQGTKLEIK
notes: Named as a potential lead
B11: Composite Human anti-CLEVER-1 antibody VH3/VK1 (antibody, human IgG4, V domains shown)
VH: QVTLKESGPTLVKPTQTLTLTCSFSGFSLSTSGMGIGWIRQPPGKALEWLAHIWWDDDKRYNPALKSRLTISKDTSKNQVVLTMTNMDPVDTATYYCARHYGYDPYYAMDYWGQGTLVTVSS
VL: QIVLTQSPGILSLSPGERATMSCTASSSVSSSYLHWYQQKPGKAPKLCIYRTSNLASGVPSRFSGSGSGTDYTLTISSLQAEDFATYYCHQYHRSPPTFGQGTKLEIK
B12: Composite Human anti-CLEVER-1 antibody VH3/VK2 (antibody, human IgG4, V domains shown)
VH: QVTLKESGPTLVKPTQTLTLTCSFSGFSLSTSGMGIGWIRQPPGKALEWLAHIWWDDDKRYNPALKSRLTISKDTSKNQVVLTMTNMDPVDTATYYCARHYGYDPYYAMDYWGQGTLVTVSS
VL: QIVLTQSPGTLSLSPGERATMSCTASSSVSSSYLHWYQQKPGKAPKLCIYRTSNLASGVPSRFSGSGSGTDYTLTISSLQPEDFATYYCHQYHRSPPTFGQGTKLEIK
B13: Composite Human anti-CLEVER-1 antibody VH3/VK4 (antibody, human IgG4, V domains shown)
VH: QVTLKESGPTLVKPTQTLTLTCSFSGFSLSTSGMGIGWIRQPPGKALEWLAHIWWDDDKRYNPALKSRLTISKDTSKNQVVLTMTNMDPVDTATYYCARHYGYDPYYAMDYWGQGTLVTVSS
VL: QIVLTQSPGILSLSPGERATMSCTASSSVSSSYLHWYQQKPGKAPKLLIYRTSNLASGVPSRFSGSGSGTDYTLTISSLQAEDFATYYCHQYHRSPPTFGQGTKLEIK
B14: Composite Human anti-CLEVER-1 antibody VH4/VK1 (antibody, human IgG4, V domains shown)
VH: QVTLKESGPTLVKPTQTLTLTCTFSGFSLSTSGMGIGWIRQPPGKALEWLAHIWWDDDKRYNPALKSRLTISKDTSKNQVVLTMTNMDPVDTATYYCARHYGYDPYYAMDYWGQGTLVTVSS
VL: QIVLTQSPGILSLSPGERATMSCTASSSVSSSYLHWYQQKPGKAPKLCIYRTSNLASGVPSRFSGSGSGTDYTLTISSLQAEDFATYYCHQYHRSPPTFGQGTKLEIK
B15: Composite Human anti-CLEVER-1 antibody VH4/VK2 (antibody, human IgG4, V domains shown)
VH: QVTLKESGPTLVKPTQTLTLTCTFSGFSLSTSGMGIGWIRQPPGKALEWLAHIWWDDDKRYNPALKSRLTISKDTSKNQVVLTMTNMDPVDTATYYCARHYGYDPYYAMDYWGQGTLVTVSS
VL: QIVLTQSPGTLSLSPGERATMSCTASSSVSSSYLHWYQQKPGKAPKLCIYRTSNLASGVPSRFSGSGSGTDYTLTISSLQPEDFATYYCHQYHRSPPTFGQGTKLEIK
B16: Composite Human anti-CLEVER-1 antibody VH4/VK4 (antibody, human IgG4, V domains shown)
VH: QVTLKESGPTLVKPTQTLTLTCTFSGFSLSTSGMGIGWIRQPPGKALEWLAHIWWDDDKRYNPALKSRLTISKDTSKNQVVLTMTNMDPVDTATYYCARHYGYDPYYAMDYWGQGTLVTVSS
VL: QIVLTQSPGILSLSPGERATMSCTASSSVSSSYLHWYQQKPGKAPKLLIYRTSNLASGVPSRFSGSGSGTDYTLTISSLQAEDFATYYCHQYHRSPPTFGQGTKLEIK
B17: Composite Human anti-CLEVER-1 antibody VH4/VK5 (antibody, human IgG4, V domains shown)
VH: QVTLKESGPTLVKPTQTLTLTCTFSGFSLSTSGMGIGWIRQPPGKALEWLAHIWWDDDKRYNPALKSRLTISKDTSKNQVVLTMTNMDPVDTATYYCARHYGYDPYYAMDYWGQGTLVTVSS
VL: EIVLTQSPGTLSLSPGERATLSCTASSSVSSSYLHWYQQKPGKAPKLLIYRTSNLASGVPSRFSGSGSGTDYTLTISSLQPEDFATYYCHQYHRSPPTFGQGTKLEIK
notes: Named as a potential lead
B18: humanized anti-CLEVER-1 antibody FAR02 VH3/VK5 (antibody, V domains shown)
VH: QVTLKESGPTLVKPTQTLTLTCSFSGFSLSTSGMGIGWIRQPPGKALEWLAHIWWDDDKRYNPALKSRLTISKDTSKNQVVLTMTNMDPVDTATYYCARHYGYDPYYAMDYWGQGTLVTVSS
VL: EIVLTQSPGTLSLSPGERATLSCTASSSVSSSYLHWYQQKPGKAPKLLIYRTSNLASGVPSRFSGSGSGTDYTLTISSLQPEDFATYYCHQYHRSPPTFGQGTKLEIK
notes: Named as a potential lead; also called FAR02 VH3A/K5

molecular target: T1, CLEVER-1 coated on the ELISA plate (competition ELISA, Examples 5 and 10) (human, UniProt Q9NY15 26-1027, limits assumed); assay: competition ELISA on coated CLEVER-1 against biotinylated mouse 3-372
T1 construct: Coated at 1 ug/ml in PBS; also called human Clever-1
T1 sequence (looked up): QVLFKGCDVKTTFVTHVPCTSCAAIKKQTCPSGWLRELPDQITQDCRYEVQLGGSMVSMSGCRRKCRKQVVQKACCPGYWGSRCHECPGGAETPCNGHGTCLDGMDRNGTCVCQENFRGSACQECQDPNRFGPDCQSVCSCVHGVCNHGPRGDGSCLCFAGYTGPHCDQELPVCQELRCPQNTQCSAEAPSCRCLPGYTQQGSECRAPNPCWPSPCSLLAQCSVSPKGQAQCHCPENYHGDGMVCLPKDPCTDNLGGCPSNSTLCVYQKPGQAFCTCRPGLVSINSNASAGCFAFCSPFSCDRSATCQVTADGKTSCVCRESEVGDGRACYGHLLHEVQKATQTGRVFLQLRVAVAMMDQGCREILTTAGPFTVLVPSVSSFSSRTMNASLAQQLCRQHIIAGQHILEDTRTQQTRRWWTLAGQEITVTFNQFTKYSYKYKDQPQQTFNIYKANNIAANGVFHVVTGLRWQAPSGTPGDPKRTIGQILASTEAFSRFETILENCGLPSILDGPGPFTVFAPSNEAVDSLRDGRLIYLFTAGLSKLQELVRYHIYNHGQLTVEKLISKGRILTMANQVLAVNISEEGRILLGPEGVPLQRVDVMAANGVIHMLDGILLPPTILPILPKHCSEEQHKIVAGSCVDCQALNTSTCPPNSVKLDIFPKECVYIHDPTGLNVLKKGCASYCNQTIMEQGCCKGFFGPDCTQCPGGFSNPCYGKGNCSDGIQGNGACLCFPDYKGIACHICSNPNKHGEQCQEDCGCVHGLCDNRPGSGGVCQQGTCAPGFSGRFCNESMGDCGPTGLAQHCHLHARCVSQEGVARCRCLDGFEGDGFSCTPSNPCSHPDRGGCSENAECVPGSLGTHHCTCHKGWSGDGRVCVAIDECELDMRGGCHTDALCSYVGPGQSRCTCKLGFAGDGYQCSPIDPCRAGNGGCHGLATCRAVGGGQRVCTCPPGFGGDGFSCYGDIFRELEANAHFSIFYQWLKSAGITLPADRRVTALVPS
Experimental: These were incubated for 1 hour at room temperature on a 96 well Immulon maxisorp plate (Fisher Cat. No. DIS-971-030J) precoated with 1 μg/ml CLEVER-1. […] The reaction was stopped with 3M HCl, absorbance read at 450 nm on a Dynex Technologies MRX TC II plate reader and the binding curves plotted. IC50 values for each antibody were calculated and these were normalized to the IC50 of the chimera which was included on each respective ELISA plate.

Point of comparison: B5, “Relative IC50” value 1.17 relative to the chimera on the same plate. Against it:
- B1 — lower, 0.95 relative to the chimera on the same plate
- B2 — lower, 0.84 relative to the chimera on the same plate
- B3 — higher, 1.37 relative to the chimera on the same plate
- B4 — higher, 1.63 relative to the chimera on the same plate
- B6 — lower, 1.13 relative to the chimera on the same plate
- B7 — lower, 0.82 relative to the chimera on the same plate
- B8 — lower, 0.7 relative to the chimera on the same plate
- B9 — lower, 0.79 relative to the chimera on the same plate
- B10 — lower, 0.52 relative to the chimera on the same plate
- B11 — lower, 0.76 relative to the chimera on the same plate
- B12 — lower, 0.51 relative to the chimera on the same plate
- B13 — lower, 0.47 relative to the chimera on the same plate
- B14 — higher, 1.86 relative to the chimera on the same plate
- B15 — lower, 0.9 relative to the chimera on the same plate
- B16 — higher, 1.2 relative to the chimera on the same plate
- B17 — lower, 0.46 relative to the chimera on the same plate
- B18 — lower, 0.42 relative to the chimera on the same plate
